{
  "source": "patent US20100233154A1",
  "about": "“TARGETED BINDING AGENTS DIRECTED TO HEPARANASE AND USES THEREOF 463” (MedImmune Limited, priority 2008, published 2010)",
  "molecules": {"B1": {"name": "15A11.1: fully human anti-heparanase monoclonal antibody, G2κ; VH SEQ ID NO 10, VL SEQ ID NO 12; ATCC PTA-9490 (antibody, listed as Homo Sapiens, V domains shown)", "VH": "QVQLVQSGAEVKKPGASVKVSCKVSGDTLTELSMHWVRQTPGKGLEWMGGFDPEDGETIYAQKFQGRVTMTGDTSTDTAYMELSSLRSEDTAVYYCATEGDYGDSEEYYYYYGMDVWGQGTTVTVSS", "VL": "DIQMTQSPSSLSASVGDRVTITCRASQGISNYLAWYQQKPGKVPKLLIYAASTLQSGVPSRFSGSGSGTDFTLTISSLQPEDVATYYCQKYNRAPFTFGPGTKVDIK", "notes": "fully human anti-heparanase monoclonal antibody, G2κ; ATCC PTA-9490"}},
  "key": {"[1]": {"biological_target": "T1, recombinant human heparanase (Homo sapiens, UniProt Q9Y251)", "T1 construct": "Heparanase 8 and 50 kDa sub-units were cloned into pacGP67 as Sma 1-EcoR1 fragments; made in house; host or cells: Hi5 insect cells, baculovirus (pFastBac Dual)", "T1 sequence (Q9Y251 158-543 limits assumed)": "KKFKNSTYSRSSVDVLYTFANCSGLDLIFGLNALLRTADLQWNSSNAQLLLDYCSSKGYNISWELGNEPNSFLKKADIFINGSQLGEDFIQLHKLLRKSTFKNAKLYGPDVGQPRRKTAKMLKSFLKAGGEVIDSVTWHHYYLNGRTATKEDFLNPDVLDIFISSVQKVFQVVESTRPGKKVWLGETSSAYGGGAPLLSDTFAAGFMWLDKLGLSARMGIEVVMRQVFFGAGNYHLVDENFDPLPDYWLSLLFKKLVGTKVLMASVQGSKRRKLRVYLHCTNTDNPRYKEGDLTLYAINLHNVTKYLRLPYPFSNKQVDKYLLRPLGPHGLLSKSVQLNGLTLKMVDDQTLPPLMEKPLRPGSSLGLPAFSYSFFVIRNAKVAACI", "T1 sequence (Q9Y251 36-109 limits assumed)": "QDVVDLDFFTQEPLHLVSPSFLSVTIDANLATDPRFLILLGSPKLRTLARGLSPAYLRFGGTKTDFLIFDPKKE", "assay": "ELISA binding to directly coated recombinant human heparanase", "method": "(§1) Titres of antibodies from Campaigns 1 and 2 were determined in an ELISA. Costar 3368 medium binding plates were coated directly with recombinant human heparanase or plates were coated with Rabbit anti-heparanase antibody (Raybiotech, Cat. IP-14-155) to capture recombinant heparanase. Directly coated heparanase was detected in three separate plates by mouse (InSight Cat. INS-26-1-0000), goat (Santa Cruz, Cat. sc26136) or rabbit (Raybiotech, Cat. IP-14-155) anti-heparanase antibodies, and quantified using appropriate secondary antibodies. Antibody captured heparanase was detected using mouse anti-heparanase (Insight Cat. INS-26-1-0000). At the end of the immunisation program, fusions were performed using mouse myeloma cells and lymphocytes isolated from the spleens and lymph nodes of the immunised mice by means of electroporation, as described in Example 2.\n(§2) Initial screening to detect antibodies binding to human heparanase in both direct coating and antibody capture ELISAs as described above identified 800 hybridomas for further testing; 535 IgG2 from Campaign 1 and 2 and 265 IgG4 from Campaign 2. Enzyme inhibition assays and cross species binding to cynomolgus and murine heparanase, in an antibody capture ELISA, identifed 12 antibodies that were taken forward for sub-cloning to provide purified antibodies for further analysis. Subsequently, confirmation of activity against human heparanase (FIGS. 3 and 4) and inhibition of recombinant cynomolgus and murine heparanase activity in the HS-cryptate degradation assay (FIG. 5a-c), together with sequence analysis, identified 8 antibodies that are described in the table below."}, "[2]": {"biological_target": "T2, recombinant heparanase captured with rabbit anti-heparanase antibody (Homo sapiens, UniProt Q9Y251)", "T2 construct": "Heparanase 8 and 50 kDa sub-units were cloned into pacGP67 as Sma 1-EcoR1 fragments; made in house; host or cells: Hi5 insect cells, baculovirus (pFastBac Dual)", "T2 sequence (Q9Y251 158-543 limits assumed)": "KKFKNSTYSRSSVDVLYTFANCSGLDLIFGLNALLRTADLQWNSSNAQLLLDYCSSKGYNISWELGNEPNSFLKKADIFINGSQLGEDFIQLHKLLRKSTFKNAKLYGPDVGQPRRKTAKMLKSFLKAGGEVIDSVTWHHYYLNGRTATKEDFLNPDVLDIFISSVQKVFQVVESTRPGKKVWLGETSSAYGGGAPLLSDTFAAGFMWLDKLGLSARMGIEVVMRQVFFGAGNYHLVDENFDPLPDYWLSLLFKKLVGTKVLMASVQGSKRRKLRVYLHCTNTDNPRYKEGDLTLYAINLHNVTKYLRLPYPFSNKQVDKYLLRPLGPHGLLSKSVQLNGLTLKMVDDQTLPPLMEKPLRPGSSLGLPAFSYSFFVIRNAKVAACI", "T2 sequence (Q9Y251 36-109 limits assumed)": "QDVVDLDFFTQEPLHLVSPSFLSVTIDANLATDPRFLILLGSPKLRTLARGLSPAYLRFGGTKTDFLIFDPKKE", "assay": "ELISA binding to antibody-captured heparanase", "conditions": "antibody capture", "method": "as §1, §2"}, "human heparanase": {"biological_target": "T3, human heparanase (Homo sapiens, UniProt Q9Y251)", "T3 sequence (Q9Y251 36-543)": "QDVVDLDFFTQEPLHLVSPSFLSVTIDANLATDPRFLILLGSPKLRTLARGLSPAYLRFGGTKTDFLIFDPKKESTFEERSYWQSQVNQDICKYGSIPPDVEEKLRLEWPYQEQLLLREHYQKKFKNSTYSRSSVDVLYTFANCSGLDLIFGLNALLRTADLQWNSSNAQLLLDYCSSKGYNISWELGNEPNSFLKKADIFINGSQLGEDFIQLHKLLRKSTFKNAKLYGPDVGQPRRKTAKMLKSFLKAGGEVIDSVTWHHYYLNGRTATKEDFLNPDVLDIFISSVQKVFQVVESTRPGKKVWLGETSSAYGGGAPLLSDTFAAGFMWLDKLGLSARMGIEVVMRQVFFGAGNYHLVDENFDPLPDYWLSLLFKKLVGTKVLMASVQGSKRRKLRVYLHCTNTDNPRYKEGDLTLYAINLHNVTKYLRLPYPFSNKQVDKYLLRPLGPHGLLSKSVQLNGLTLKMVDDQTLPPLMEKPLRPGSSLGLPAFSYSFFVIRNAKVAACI", "assay": "Cross species capture ELISA, human heparanase", "type": "binding", "method": "(§3) Initially, cross species binding to human, murine and cynomolgus heparanase was determined in an ELISA assay in which heparanase was captured onto plates using a rabbit anti-heparanase antibody (Raybiotech, Cat. IP-14-155). Exhaustive supernatants were added to the plates at a final dilution of 1:5 and bound antibody detected with a rabbit anti-human IgG Fc."}, "cynomolgus heparanase": {"tested_on": "cynomolgus heparanase", "assay": "Cross species capture ELISA, cynomolgus heparanase", "type": "binding", "conditions": "min 0.06, max 1.5 OD units", "method": "as §3"}, "murine heparanase": {"biological_target": "T4, murine heparanase (Mus musculus, UniProt Q6YGZ1)", "T4 construct": "made in house; host or cells: Hek293 cells (conditioned medium), inferred for the ELISA", "T4 sequence (Q6YGZ1 28-535)": "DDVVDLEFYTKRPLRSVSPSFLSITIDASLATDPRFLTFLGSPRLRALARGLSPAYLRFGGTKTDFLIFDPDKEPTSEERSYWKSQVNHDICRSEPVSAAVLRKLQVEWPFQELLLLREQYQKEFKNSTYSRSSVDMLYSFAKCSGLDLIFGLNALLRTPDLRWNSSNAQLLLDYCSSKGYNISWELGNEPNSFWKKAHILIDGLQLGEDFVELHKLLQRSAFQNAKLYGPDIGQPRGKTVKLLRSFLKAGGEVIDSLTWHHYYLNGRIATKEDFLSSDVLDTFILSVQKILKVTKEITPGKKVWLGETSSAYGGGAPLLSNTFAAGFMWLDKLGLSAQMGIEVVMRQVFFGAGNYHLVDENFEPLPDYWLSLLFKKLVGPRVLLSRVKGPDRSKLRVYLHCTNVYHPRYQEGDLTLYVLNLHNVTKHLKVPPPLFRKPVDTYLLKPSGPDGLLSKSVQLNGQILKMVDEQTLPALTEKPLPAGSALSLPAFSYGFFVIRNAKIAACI", "assay": "Cross species capture ELISA, murine heparanase", "type": "binding", "conditions": "min 0.06, max 0.9 OD units", "method": "as §3"}, "Recombinant Hpa1": {"biological_target": "T5, Recombinant Hpa1 (Homo sapiens, UniProt Q9Y251)", "T5 construct": "Heparanase 8 and 50 kDa sub-units were cloned into pacGP67 as Sma 1-EcoR1 fragments; made in house; host or cells: Hi5 insect cells, baculovirus (pFastBac Dual)", "T5 sequence (Q9Y251 158-543 limits assumed)": "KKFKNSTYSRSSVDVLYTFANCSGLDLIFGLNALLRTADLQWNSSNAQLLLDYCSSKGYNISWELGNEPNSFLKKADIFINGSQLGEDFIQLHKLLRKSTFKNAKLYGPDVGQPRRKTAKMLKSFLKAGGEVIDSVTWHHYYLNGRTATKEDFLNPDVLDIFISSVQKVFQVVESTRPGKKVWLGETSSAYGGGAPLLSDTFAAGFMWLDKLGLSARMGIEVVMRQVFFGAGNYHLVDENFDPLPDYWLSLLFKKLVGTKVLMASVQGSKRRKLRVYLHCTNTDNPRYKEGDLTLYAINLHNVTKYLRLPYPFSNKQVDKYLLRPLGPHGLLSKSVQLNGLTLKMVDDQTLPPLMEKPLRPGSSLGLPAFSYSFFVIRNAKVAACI", "T5 sequence (Q9Y251 36-109 limits assumed)": "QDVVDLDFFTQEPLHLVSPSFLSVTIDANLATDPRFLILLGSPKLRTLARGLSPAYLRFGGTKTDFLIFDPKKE", "assay": "Medium resolution Biacore affinity", "type": "binding", "conditions": "purified antibody captured on CM4 chip; Hpa1 1 nM and 10 nM; 25° C.", "method": "For medium resolution Biacore™ tests, cloned and purified antibodies were used. Each of three purified antibodies (10E9.1, 15A1.2, and 15A11.1) were captured onto a high-density goat anti-human antibody surface over a CM4 Biacore™ chip. Recombinant Hpa1 was diluted to the desired concentration (1 nM and 10 nM) in 10 mM HEPES, 150 mM NaCl, 0.005% tween-20, 0.1 mg per ml BSA pH7.4 (25° C.) immediately prior to injection. Data were fit globally to a 1:1 interaction model with a term for mass transport included. The resulting KD values are summarised below in Table 4."}, "MDA MB231-Hpa1#4 cells": {"tested_on": "MDA MB231-Hpa1#4 cells", "assay": "Heparanase expression in cells cultured with antibody (Western blot)", "type": "cell-based, human", "conditions": "25 μg per ml antibody, 72 hrs, compared to untreated or IgG2 control", "method": "MDA MB231-Hpa1#4 cells were cultured in the presence of 25 μg per ml anti-human heparanase antibody or control IgG2 antibody (Sigma Cat. No. 1504-1MG) for 72 hrs. Following the removal of culture medium, protein extracts were prepared from the cells in 100 μl RIPA buffer and separated on […] gels and transferred to nitrocellulose as described above. Western blots were probed with an anti-heparanase antibody that detected only pro-heparanase (SantaCruz Cat. No. SC25825)."}, "MCF7-Hpa1#19 xenograft": {"tested_on": "MCF7-Hpa1#19 xenograft", "assay": "Subcutaneous xenograft tumour growth, MCF7-Hpa1#19", "type": "in vivo, SCID mice", "conditions": "once weekly i.p.; 10E9.1 at 7.5 or 15 mg per kg", "method": "(§4) MCF7-Hpa1#19 and HCT116 tumour cells were harvested from sub-confluent cultures. A total of 5×10^6 (MCF7-Hpa1#19) or 10^7 (HCT116) tumour cells were inoculated subcutaneously into the flank of male SCID mice. HCT116 tumour cells were implanted in PBS; […] cells were implanted in PBS containing 50% matrigel.\n(§5) When tumours had attained ˜200 mm^3, tumour bearing mice were randomised into treatment groups and dosed with the following; PBS; an isotype matched control IgG2 antibody, 15 mg per kg; anti-heparanase antibody 10E9.1, 7.5 or 15 mg per kg. All treatments were administered once weekly i.p. Tumour growth was measured twice per week using calipers and tumour volumes calculated according to an ellipsoid volume is formula (3.142/6×length×width×width) from measures of the largest tumour diameter and two opposing widths (FIG. 11)."}, "HCT116 xenograft": {"tested_on": "HCT116 xenograft", "assay": "Subcutaneous xenograft tumour growth, HCT116", "type": "in vivo, SCID mice", "conditions": "once weekly i.p.; 10E9.1 at 15 mg per kg", "method": "as §4, §5"}},
  "data": [
    {"molecule": "B1", "values": [
      {"measurement": "Binding to direct coated heparanase", "setting": "[1]", "result": 0.07, "unit": "OD units"},
      {"measurement": "Binding to captured heparanase", "setting": "[2]", "result": 0.5, "unit": "OD units"},
      {"measurement": "Binding to heparanase Human", "setting": "human heparanase", "result": 0.21, "unit": "OD units"},
      {"measurement": "Binding to heparanase Cyno", "setting": "cynomolgus heparanase", "result": 0.14, "unit": "OD units"},
      {"measurement": "Binding to heparanase Mouse", "setting": "murine heparanase", "result": 0.17, "unit": "OD units"},
      {"measurement": "ka", "setting": "Recombinant Hpa1", "result": "3.6e+06", "unit": "M⁻¹ s⁻¹"},
      {"measurement": "kd", "setting": "Recombinant Hpa1", "result": 0.000309, "unit": "s⁻¹"},
      {"measurement": "Inhibition of heparanase expression", "setting": "MDA MB231-Hpa1#4 cells", "result": "significant inhibition of heparanase expression"},
      {"measurement": "Tumour growth inhibition", "setting": "MCF7-Hpa1#19 xenograft", "result": "not inhibited"},
      {"measurement": "Tumour growth inhibition", "setting": "HCT116 xenograft", "result": "not inhibited"}
    ]}
  ]
}
